The text below walks through data of patent publication US20200024360A1 (Janssen / Centocor, published 2020).

Experiment [1] concerns the target T1, recombinant cynomolgous monkey PSMA extracellular domain (ECD) protein (Macaca fascicularis, UniProt Q04609 48-750 (human entry), biotin on the Avi tag).
T1 construct: also called cyno PSMA ECD; PSMG1
T1 chain: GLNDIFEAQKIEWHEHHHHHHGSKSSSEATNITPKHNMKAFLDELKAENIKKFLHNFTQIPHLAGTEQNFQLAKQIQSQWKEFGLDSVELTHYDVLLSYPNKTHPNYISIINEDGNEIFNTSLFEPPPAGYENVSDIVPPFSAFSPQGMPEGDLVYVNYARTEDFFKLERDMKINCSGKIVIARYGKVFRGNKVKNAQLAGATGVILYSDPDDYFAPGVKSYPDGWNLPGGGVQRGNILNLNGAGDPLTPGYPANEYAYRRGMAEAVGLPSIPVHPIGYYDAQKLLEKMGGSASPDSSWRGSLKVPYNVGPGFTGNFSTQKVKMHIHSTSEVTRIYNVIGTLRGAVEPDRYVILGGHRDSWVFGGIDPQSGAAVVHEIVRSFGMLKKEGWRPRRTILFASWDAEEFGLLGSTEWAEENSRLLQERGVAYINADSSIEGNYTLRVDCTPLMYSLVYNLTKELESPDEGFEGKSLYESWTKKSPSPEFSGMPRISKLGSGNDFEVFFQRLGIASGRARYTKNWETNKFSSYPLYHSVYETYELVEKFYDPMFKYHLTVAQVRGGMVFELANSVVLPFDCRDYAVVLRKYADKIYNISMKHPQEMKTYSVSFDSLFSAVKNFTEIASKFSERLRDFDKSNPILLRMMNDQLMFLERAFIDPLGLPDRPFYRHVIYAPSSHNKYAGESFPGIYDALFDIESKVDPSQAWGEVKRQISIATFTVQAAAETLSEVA
Nature of the experiment: SPR ProteOn.

In experiment [2] the target is T2, recombinant chimpanzee PSMA extracellular domain (ECD) protein (Pan troglodytes, UniProt Q04609 44-750 (human entry)).
T2 construct: also called Chimp PSMA ECD; PSMG8
T2 chain: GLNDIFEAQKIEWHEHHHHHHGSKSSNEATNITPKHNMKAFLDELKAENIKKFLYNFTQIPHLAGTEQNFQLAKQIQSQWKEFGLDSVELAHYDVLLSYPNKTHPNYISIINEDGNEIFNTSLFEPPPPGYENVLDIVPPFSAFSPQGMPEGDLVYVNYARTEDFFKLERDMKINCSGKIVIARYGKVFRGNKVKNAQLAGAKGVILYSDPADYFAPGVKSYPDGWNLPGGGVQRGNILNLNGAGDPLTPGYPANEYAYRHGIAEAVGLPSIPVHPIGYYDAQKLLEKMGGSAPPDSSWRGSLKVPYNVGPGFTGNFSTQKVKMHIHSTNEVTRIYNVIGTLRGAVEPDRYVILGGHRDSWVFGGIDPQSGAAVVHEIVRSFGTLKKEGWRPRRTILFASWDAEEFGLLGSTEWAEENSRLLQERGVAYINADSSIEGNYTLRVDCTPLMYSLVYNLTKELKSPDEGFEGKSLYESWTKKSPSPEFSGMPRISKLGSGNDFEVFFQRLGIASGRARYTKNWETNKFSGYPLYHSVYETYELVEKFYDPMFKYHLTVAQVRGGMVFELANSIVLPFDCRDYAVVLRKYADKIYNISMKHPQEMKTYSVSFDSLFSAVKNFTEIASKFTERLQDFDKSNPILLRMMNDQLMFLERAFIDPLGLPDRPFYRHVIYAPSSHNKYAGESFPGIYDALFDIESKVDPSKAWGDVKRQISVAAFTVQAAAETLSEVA
Briefly: SPR ProteOn.

The target of experiment [3] is T3, recombinant human PSMA extracellular domain (ECD) protein (human, UniProt Q04609 44-750).
T3 construct: also called human PSMA ECD
Nature of the experiment: SPR ProteOn.

Experiment [4] deals with T4, human PSMA (prostate specific membrane antigen), full length (human, UniProt Q04609 1-750).
T4 construct: On LNCaP or C4-2B cells (endogenous) or transduced HEK293F cells; also called FOLH1_HUMAN; hPSMA
Nature of the experiment: flow cytometry, bispecific antibody titrated on LNCaP cells (human PSMA), anti-human kappa light chain PE. The protocol:
PSMA×CD3 bispecific antibodies were tested for binding to PSMA positive cell lines LNCAP, human PSMA-HEK, Chimpanzee-PSMA-HEK and Cynomolgous monkey PSMA-HEK. To assess the binding capabilities of the PSMA bispecific antibodies, the cell-binding assay was utilized (described previously). Briefly, PSMA expressing tumor cells are bound by bispecific antibodies at known concentrations and the bound antibody is detected by an anti-human kappa light chain PE conjugated detection reagent (Invitrogen). The Mean Fluorescents Intensity (MFI) is the measure of bound bispecific antibody. The MFI is converted to a relative EC₅₀. EC₅₀ is a commonly used dose-response curve, where the half maximal effective concentration or the EC₅₀ point is defined as the inflection point of the curve. EC₅₀ s were determined by measuring cell bound bispecific and known concentrations. […] The dose response curves were then diluted down to that of background or no bispecific binding. The inflection point of this curve reflects the EC₅₀ point. The calculated EC₅₀ is determined by taking the ug/ml amount of bispecific antibody at the EC₅₀ point and converting it to a molarity value based on the MW of the bispecific antibody. Bispecific antibodies were normalized for protein concentration and then incubated with the same number of cells expressing either human or cyno PSMA. The MFI at each concentration was collected by flow cytometry and plotted as a function of concentration. Data was transformed via log 10 and then plotted. Nonlinear regression of binding curves was done to determine EC₅₀ s. These relative values were used for ranking PSMA binding to target cells.

By Kd is commonly meant the constant that tells how readily two partners part at equilibrium. Broadly, the EC50 (read off the curve) is the concentration giving half of the maximal effect.

B1: PSMB123 (antibody, human IgG4 S228P, kappa, F234A L235A, V domains shown)
VH: EVQLVQSGAEVKKPGESLKISCKGSGYSFTSYWIGWVRQMPGKGLEWMGIIYPGDSDTRYSPSFQGQVTISADKSISTAYLQWSSLKASDTAMYYCARGLPIWYLDYWGQGTLVTVSS
VL: EIVLTQSPATLSLSPGERATLSCRASQSVASDLAWYQQKPGQAPRLLIYFASNRATGIPARFSGSGSGTDFTLTISSLEPEDFAVYYCQQSITWPFTFGQGTKVEIKR
notes: IgG4 with S228P, F234A, L235A; also called mAb of Fab PSMB55
As to B1, the Kd in experiment [1] is 66.7 nM; in experiment [2], 14.3 nM; in experiment [3], 9.03 nM.

B2: PSMB127 (antibody, human IgG4 S228P, kappa, F234A L235A, V domains shown)
VH: EVQLLESGGGLVQPGGSLRLSCAASGFTFKSDAMHWVRQAPGKGLEWVSEISGSGGYTNYADSVKGRFTISRDNSKNTLYLQMNSLRAEDTAVYYCARDSYDSSLYVGDYFDYWGQGTLVTVSS
VL: EIVLTQSPATLSLSPGERATLSCRASQSVSSYLAWYQQKPGQAPRLLIYDASNRATGIPARFSGSGSGTDFTLTISSLEPEDFAVYYCQQRSNWPLTFGQGTKVEIKR
notes: IgG4 with S228P, F234A, L235A; also called mAb of Fab PSMB83
B2: the values for the Kd in experiment [1], in experiment [2] and in experiment [3] were 6.68 nM, 12.8 nM and 12 nM, respectively.

B3: PS3B9 (M84) (bispecific antibody, human IgG4 S228P, kappa, lambda, F234A L235A)
heavy chain, PSMA arm (PSMB127): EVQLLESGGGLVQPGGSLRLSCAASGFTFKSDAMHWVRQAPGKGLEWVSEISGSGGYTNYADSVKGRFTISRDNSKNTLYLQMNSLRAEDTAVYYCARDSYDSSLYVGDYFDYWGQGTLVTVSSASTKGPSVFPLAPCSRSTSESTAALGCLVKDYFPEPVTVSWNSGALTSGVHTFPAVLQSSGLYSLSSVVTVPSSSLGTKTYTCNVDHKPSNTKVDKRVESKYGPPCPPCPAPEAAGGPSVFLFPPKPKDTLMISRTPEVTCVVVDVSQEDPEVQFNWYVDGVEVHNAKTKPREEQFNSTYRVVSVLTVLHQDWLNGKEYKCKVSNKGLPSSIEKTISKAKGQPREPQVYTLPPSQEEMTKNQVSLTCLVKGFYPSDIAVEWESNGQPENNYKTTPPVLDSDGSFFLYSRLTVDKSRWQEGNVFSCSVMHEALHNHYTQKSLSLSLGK
light chain, PSMA arm (PSMB127): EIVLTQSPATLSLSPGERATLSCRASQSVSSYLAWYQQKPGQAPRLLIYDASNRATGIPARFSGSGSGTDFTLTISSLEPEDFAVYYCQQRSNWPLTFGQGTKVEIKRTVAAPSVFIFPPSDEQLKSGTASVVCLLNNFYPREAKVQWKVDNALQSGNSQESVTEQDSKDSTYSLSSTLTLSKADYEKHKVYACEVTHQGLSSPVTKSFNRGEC
heavy chain, CD3 arm (CD3B217): EVQLLESGGGLVQPGGSLRLSCAASGFTFNTYAMNWVRQAPGKGLEWVARIRSKYNNYATYYADSVKGRFTISRDNSKNTLYLQMNSLRAEDTAVYYCVKHGNFGNSYVSWFAYWGQGTLVTVSSASTKGPSVFPLAPCSRSTSESTAALGCLVKDYFPEPVTVSWNSGALTSGVHTFPAVLQSSGLYSLSSVVTVPSSSLGTKTYTCNVDHKPSNTKVDKRVESKYGPPCPPCPAPEAAGGPSVFLFPPKPKDTLMISRTPEVTCVVVDVSQEDPEVQFNWYVDGVEVHNAKTKPREEQFNSTYRVVSVLTVLHQDWLNGKEYKCKVSNKGLPSSIEKTISKAKGQPREPQVYTLPPSQEEMTKNQVSLTCLVKGFYPSDIAVEWESNGQPENNYKTTPPVLDSDGSFLLYSKLTVDKSRWQEGNVFSCSVMHEALHNHYTQKSLSLSLGK
light chain, CD3 arm (CD3B217): QAVVTQEPSLTVSPGGTVTLTCRSSTGAVTTSNYANWVQQKPGQAPRGLIGGTNKRAPGTPARFSGSLLGGKAALTLSGAQPEDEAEYYCALWYSNLWVFGGGTKLTVLGQPKAAPSVTLFPPSSEELQANKATLVCLISDFYPGAVTVAWKADSSPVKAGVETTTPSKQSNNKYAASSYLSLTPEQWKSHRSYSCQVTHEGSTVEKTVAPTECS
notes: also called PSMB127 x CD3B217
In the case of B3, the “EC50 (read off the curve)” value in experiment [4] is approximately 2 µg/mL.
